Source: article doi:10.1101/2024.03.04.583305

Tests used:
Test in all cases: EMSA
DuoMYC (7) (synthetic) = DuoMYC (7) (synthetic) (UniProt P01106)
DuoMYC (5) (synthetic) = DuoMYC (5) (synthetic) (UniProt P01106)
monoMYC (4) (synthetic) = monoMYC (4) (synthetic) (UniProt P01106)
Chain of monoMYC (4) (synthetic) (P01106 365-423): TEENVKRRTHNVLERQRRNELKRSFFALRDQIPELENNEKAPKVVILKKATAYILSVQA

Chain of DuoMYC (5) (synthetic) (P01106 365-423): as above
Chain of DuoMYC (7) (synthetic) (P01106 whole entry): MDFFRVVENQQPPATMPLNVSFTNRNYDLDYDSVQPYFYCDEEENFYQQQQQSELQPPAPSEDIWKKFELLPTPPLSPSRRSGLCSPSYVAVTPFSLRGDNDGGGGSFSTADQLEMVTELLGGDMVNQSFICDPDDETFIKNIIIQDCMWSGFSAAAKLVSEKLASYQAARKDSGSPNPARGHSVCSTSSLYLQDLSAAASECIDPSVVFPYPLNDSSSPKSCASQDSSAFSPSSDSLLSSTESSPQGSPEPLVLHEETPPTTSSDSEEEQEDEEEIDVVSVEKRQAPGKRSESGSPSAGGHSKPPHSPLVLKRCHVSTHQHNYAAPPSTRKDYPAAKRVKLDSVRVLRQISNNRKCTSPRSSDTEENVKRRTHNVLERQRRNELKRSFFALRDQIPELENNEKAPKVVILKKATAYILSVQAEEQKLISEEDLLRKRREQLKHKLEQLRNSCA

## ACCCCACCACGTGGTGCCT (double strand) [E-Box DNA]
DuoMYC (7) (synthetic)
  Kd: 174 nM
DuoMYC (5) (synthetic)
  Kd: 118 nM
monoMYC (4) (synthetic)
  Kd: 969 nM
